Measured values taken from the supplement of paper PMC10126150.
± gives the standard deviation of the averaged measurements.

System: ATP
Assay: switch fluorescence ratio, 500 uM ATP over buffer (Cy3 cluster intensity, sum of 5 cycles each) (fold (ratio)); higher = stronger signal-on switching upon ATP binding; sequences stand for … in TCGTCGGCAGCGTCAGATGTGTATAAGAGACAGTTTTTTTTTTTTTTTTTTTTTTTTT…TC
Settings: aptamer strand: ATP DNA aptamer (quencher-CACCTGGGGGAGTATTGCGGAGGAAGG + anchor), 100 nM annealed; ATP concentration: 500 uM
Procedure, shortened: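 The quencher-labelled ATP aptamer, at 100 nM, was annealed to Cy3-labelled switching-strand clusters on a modified Illumina MiSeq flow-cell. The clusters were imaged in selection buffer, then after 15 min with 500 uM ATP at 22 °C, and this buffer/ATP cycle ran five times with NaOH stripping and re-annealing between runs. Per-cluster fluorescence ratios, summed target-cycle over summed buffer-cycle Cy3 intensity, were averaged per switch-domain sequence. Clusters outside 100-1000 RFU were excluded.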
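Also: ATP exposure 15 min at 22 °C before imaging.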

| Sequence | switch fluorescence ratio |
| --- | --- |
| ATAAGTGCAT | 1 ± 0.016 |
| ATAAGTGTCA | 0.9926 ± 0.0067 |
| ATAAGTTCTT | 0.995 ± 0.033 |
| ATAAGTTGGT | 0.987 ± 0.046 |
| ATAAGTTGTT | 0.993 ± 0.02 |
| ATAAGTTTTA | 0.989 ± 0.0099 |
| ATAATACGGG | 1.03 ± 0.017 |
| ATAATAGGTT | 0.986 ± 0.028 |
| ATAATATACT | 1.04 ± 0.055 |
| ATAATATGGT | 0.9838 ± 0.0036 |
| ATAATATTGG | 0.995 ± 0.013 |
| ATAATCCTGG | 0.987 ± 0.011 |
| ATAATCGGGA | 0.994 ± 0.034 |
| ATAATCTCTA | 0.9907 ± 0.0094 |
| ATAATGAGTC | 0.961 ± 0.013 |
| ATAATGGGTA | 0.97 ± 0.025 |
| ATAATGTATC | 1.03 ± 0.018 |
| ATAATGTGCA | 1.024 ± 0.0071 |
| ATAATGTTAC | 1.09 ± 0.029 |
| ATAATTCATG | 0.981 ± 0.029 |
| ATAATTCGTA | 0.96 ± 0.024 |
| ATAATTGTTC | 0.99 ± 0.031 |
| ATAATTTGCG | 0.9814 ± 0.0073 |
| ATACAAATTA | 1.01 ± 0.027 |
| ATACCTGAGC | 1.113 ± 0.0041 |
| ATACCTTA | 1.02 ± 0.038 |

| Sequence | switch fluorescence ratio |
| --- | --- |
| ATACGAACGG | 1.48 ± 0.015 |
| ATACGAAGGA | 1 ± 0.028 |
| ATACGGGGTG | 1.1 ± 0.035 |
| ATACTATCTT | 0.996 ± 0.019 |
| ATACTATTGT | 1.029 ± 0.0037 |
| ATACTCGGTA | 0.997 ± 0.023 |
| ATACTGACAT | 1.2 ± 0.053 |
| ATACTTTGCT | 1 ± 0.034 |
| ATAGAACTAG | 1 ± 0.011 |
| ATAGAAGAG | 0.978 ± 0.017 |
| ATAGAATGGG | 0.9928 ± 0.0072 |
| ATAGACGTGT | 1.02 ± 0.092 |
| ATAGAGAAGC | 1.03 ± 0.025 |
| ATAGAGCCTA | 1.03 ± 0.02 |
| ATAGAGGAGT | 0.998 ± 0.032 |
| ATAGAGGTAG | 0.976 ± 0.017 |
| ATAGAGGTGG | 0.9979 ± 0.0022 |
| ATAGATAACG | 1 ± 0.035 |
| ATAGATAGGT | 0.99 ± 0.034 |
| ATAGATAGTG | 0.959 ± 0.015 |
| ATAGATCTGA | 1.03 ± 0.084 |
| ATAGATGGGG | 1.01 ± 0.018 |
| ATAGCAAAAT | 1.07 ± 0.13 |
| ATAGCAGATG | 0.991 ± 0.046 |
| ATAGCAGGGG | 1.11 ± 0.082 |
| ATAGCAGTCG | 1.04 ± 0.077 |

| Sequence | switch fluorescence ratio |
| --- | --- |
| ATAGCAGTTT | 1.02 ± 0.013 |
| ATAGCCTGGT | 0.978 ± 0.018 |
| ATAGCTTTGA | 1.02 ± 0.0014 |
| ATAGGAAATA | 1.06 ± 0.035 |
| ATAGGAACGC | 0.995 ± 0.026 |
| ATAGGAAGGG | 0.996 ± 0.019 |
| ATAGGACTGA | 1.03 ± 0.023 |
| ATAGGAGAGC | 1.044 ± 0.0021 |
| ATAGGAGCGT | 0.979 ± 0.038 |
| ATAGGAGGGA | 1.01 ± 0.017 |
| ATAGGAGGTC | 1.01 ± 0.013 |
| ATAGGATGCC | 0.999 ± 0.019 |
| ATAGGCGAAA | 0.986 ± 0.022 |
| ATAGGCGCGC | 1.04 ± 0.014 |
| ATAGGCGTTT | 0.975 ± 0.018 |
| ATAGGGACAG | 1.012 ± 0.0078 |
| ATAGGGAGTG | 0.996 ± 0.043 |
| ATAGGGCGGC | 1.012 ± 0.0038 |
| ATAGGGCTGG | 0.968 ± 0.024 |
| ATAGGGGAAG | 1.01 ± 0.033 |
| ATAGGGGGTC | 0.988 ± 0.047 |
| ATAGGGGGTG | 1.03 ± 0.034 |
| ATAGGGGTGT | 1.01 ± 0.062 |
| ATAGGGTACG | 1.06 ± 0.022 |
| ATAGGGTCGT | 0.998 ± 0.011 |
| ATAGGGTGAT | 1.03 ± 0.021 |

| Sequence | switch fluorescence ratio |
| --- | --- |
| ATAGGGTTGG | 0.996 ± 0.049 |
| ATAGGTAGCG | 1.01 ± 0.023 |
| ATAGGTCAGG | 1.026 ± 0.0022 |
| ATAGGTCTTC | 0.983 ± 0.059 |
| ATAGGTGCTT | 1.131 ± 0.01 |
| ATAGGTGTGG | 1.02 ± 0.035 |
| ATAGGTTACG | 1.21 ± 0.25 |
| ATAGGTTAGA | 1.06 ± 0.14 |
| ATAGGTTCGG | 0.968 ± 0.021 |
| ATAGGTTGGG | 0.996 ± 0.03 |
| ATAGTAACCG | 0.997 ± 0.083 |
| ATAGTACGTG | 1.01 ± 0.024 |
| ATAGTAGGCT | 0.994 ± 0.011 |
| ATAGTCGGGC | 0.99 ± 0.022 |
| ATAGTGATCG | 0.994 ± 0.042 |
| ATAGTGGAGG | 1.01 ± 0.025 |
| ATAGTGGTGG | 1.01 ± 0.052 |
| ATAGTTATCT | 1.03 ± 0.026 |
| ATAGTTCAGC | 0.9822 ± 0.0058 |
| ATAGTTGAGG | 0.981 ± 0.02 |
| ATAGTTTACT | 1.01 ± 0.024 |
| ATAGTTTGAG | 1.01 ± 0.018 |
| ATAGTTTGCC | 0.994 ± 0.043 |
| ATAGTTTGGA | 0.947 ± 0.017 |
| ATATAATAGT | 0.991 ± 0.015 |
| ATATAATCAA | 0.98075 ± 0.00037 |

| Sequence | switch fluorescence ratio |
| --- | --- |
| ATATACGGGG | 1.04 ± 0.02 |
| ATATAGAGTT | 1.02 ± 0.082 |
| ATATAGGCTG | 1.01 ± 0.018 |
| ATATAGGGAT | 1.021 ± 0.007 |
| ATATAGGGTG | 1.09 ± 0.019 |
| ATATAGTCCT | 0.9714 ± 0.0023 |
| ATATAGTTTT | 0.953 ± 0.011 |
| ATATATAGTC | 1.02 ± 0.025 |
| ATATATATAT | 1.01 ± 0.012 |
| ATATATCGTT | 0.981 ± 0.024 |
| ATATATGGCT | 0.999 ± 0.035 |
| ATATATTTCG | 1.01 ± 0.017 |
| ATATCACGCT | 1.03 ± 0.023 |
| ATATCAGACT | 0.99 ± 0.015 |
| ATATCAGCGC | 1.03 ± 0.018 |
| ATATCATCTC | 1.002 ± 0.0063 |
| ATATCCCCCA | 1.15 ± 0.11 |
| ATATCCCTGG | 1.11 ± 0.013 |
| ATATCCGTTT | 0.974 ± 0.066 |
| ATATCGTTCG | 1.02 ± 0.054 |
| ATATCTATAG | 0.958 ± 0.018 |
| ATATCTGAGT | 1.03 ± 0.016 |
| ATATCTTTCT | 1.006 ± 0.0023 |
| ATATCTTTTT | 0.983 ± 0.037 |
| ATATGAAAAT | 1.01 ± 0.032 |
| ATATGAAGAA | 0.968 ± 0.01 |

| Sequence | switch fluorescence ratio |
| --- | --- |
| ATATGACGCT | 1.04 ± 0.09 |
| ATATGCGGGG | 0.949 ± 0.011 |
| ATATGGCCGT | 0.994 ± 0.023 |
| ATATGGGCGG | 0.98 ± 0.016 |
| ATATGGGGGA | 0.99 ± 0.038 |
| ATATGGTAAA | 0.958 ± 0.015 |
| ATATGTAGAG | 1.05 ± 0.046 |
| ATATGTCGGT | 0.963 ± 0.013 |
| ATATGTCTAG | 0.989 ± 0.01 |
| ATATTAAAAT | 1.02 ± 0.021 |
| ATATTAAGGC | 0.983 ± 0.017 |
| ATATTAGGTT | 0.998 ± 0.018 |
| ATATTGACCG | 1.03 ± 0.022 |
| ATATTGATAG | 1 ± 0.0064 |
| ATATTGGGCC | 0.997 ± 0.017 |
| ATATTGTACG | 1.03 ± 0.022 |
| ATATTGTAGT | 0.9969 ± 0.0089 |
| ATATTGTGGG | 0.987 ± 0.023 |
| ATATTGTGTG | 1.01 ± 0.048 |
| ATATTTATCG | 1.01 ± 0.033 |
| ATATTTATTT | 1.015 ± 0.009 |
| ATATTTCATG | 1.006 ± 0.0091 |
| ATATTTCTAA | 1.0113 ± 0.00013 |
